± gives the standard deviation of the averaged measurements.
What was measured:
Saccharomyces cerevisiae [1] = experiment: protein stability index of tFT-peptide fusion in wild type (PSI (0-1 scale)); higher = more stable (slower turnover); conditions: genetic background: wild type
Protocol: (§1)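 MPS profiling in S. cerevisiae of two library types built from selected 12-aa C-degron peptides (IN1, IN2, LN1, LN3, VN2, R1-R5, W1-W3, Atg1 and Rpa12 C-termini): saturation mutagenesis libraries and C-terminal +1 capping libraries (13 aa). Each peptide is fused to the C-terminus of a sfGFP-mCherry timer, after a GGGS linker. Cells are FACS-sorted into 8 mCherry/sfGFP bins and sequenced. PSI runs from 0 (unstable) to 1 (stable), measured once in wild type and in the das1Δ or doa10Δ background.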

Saccharomyces cerevisiae [2] = experiment: protein stability index of tFT-peptide fusion in deletion strain of DAS1 (PSI (0-1 scale)); higher = more stable (slower turnover)
Protocol: as §1

Saccharomyces cerevisiae [3] = experiment: protein stability index of tFT-peptide fusion (C-terminal peptide) (PSI (0-1 scale)); higher = more stable (slower turnover); conditions: temperature: 30 C
Protocol: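 MPS profiling in S. cerevisiae of the yeast C-terminome library: the last 12 aa of each annotated ORF are fused to the C-terminus of a sfGFP-mCherry timer, after a GGGS linker. Cells are FACS-sorted into 8 mCherry/sfGFP bins and deep-sequenced. PSI runs from 0 (unstable) to 1 (stable); wild type and das1Δ backgrounds, two technical replicates each.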

[4] = genetic background: das1 deletion
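For protein stability index of tFT-peptide fusion in deletion strain of DAS1 in this document: PSI is a weighted mean of each variant's read distribution over the sorted stability bins, computed only for variants having over 10 reads in total.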
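For protein stability index of tFT-peptide fusion in wild type in this document: PSI derived as read-weighted mean over the 8 sorting bins, only variants exceeding 10 total reads kept, mCherry placed adjacent to the peptide and sfGFP distal.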

Sequence | protein stability index (Saccharomyces cerevisiae [1]) | protein stability index (Saccharomyces cerevisiae [2]) | protein stability index (Saccharomyces cerevisiae [3]; [4]) | protein stability index (Saccharomyces cerevisiae [3]; genetic background: wild type)
CTSCGYKFTTNN | 0.675 | 0.704 | – | –
LKILRQKMCHQN | 0.217 | 0.68 | – | –
KKHKKPQKQKIN | 0.0387 | 0.659 | – | –
CTSCRYKFRTNN | 0.395 | 0.68 | – | –
LVVYLSCCACIN | 0.0859 | 0.138 | – | –
KKKKKGQKQKIN | 0.164 | 0.567 | – | –
KKHKKGQKWKIN | 0.102 | 0.612 | – | –
ARWRVGLWRGASF | 0.661 | 0.679 | – | –
LVVYLSTVACIN | 0.0656 | 0.161 | – | –
FSMRWTLRYWVN | 0.0387 | 0.438 | – | –
PSLAASAWRVVG | 0.155 | 0.666 | – | –
PDKRMHLIKLLN | 0.0774 | 0.592 | – | –
ARWRVGLWRSAS | 0.102 | 0.693 | – | –
RLMQPLPVQFLN | 0.1 | 0.572 | – | –
VRGAVGGDRLVG | 0.609 | 0.68 | – | –
VQGAVGGWRLVG | 0.14 | 0.708 | – | –
FSMRWTIRYWVN | 0.0535 | 0.38 | – | –
FSARWTFRYWVN | 0.0651 | 0.553 | – | –
KKHKKGKKQKIN | 0.0795 | 0.579 | – | –
ARWRVGLWRGTS | 0.318 | 0.682 | – | –
FSMRWTERYWVN | 0.0612 | 0.572 | – | –
LVVYLSCVACINN | 0.0233 | 0.037 | – | –
CSSCGYKFRTNN | 0.216 | 0.695 | – | –

Sequence | protein stability index (Saccharomyces cerevisiae [1]) | protein stability index (Saccharomyces cerevisiae [2]) | protein stability index (Saccharomyces cerevisiae [3]; [4]) | protein stability index (Saccharomyces cerevisiae [3]; genetic background: wild type)
LVVYLSCVAVIN | 0.0169 | 0.0276 | – | –
WSMRWTFRYWVN | 0.0469 | 0.48 | – | –
PDKANHLIKLLN | 0.183 | 0.594 | – | –
RLIQELPVQFLN | 0.061 | 0.616 | – | –
LKILRGKMNHQN | 0.297 | 0.674 | – | –
LKILRQKMNHQNG | 0.657 | 0.662 | – | –
PDKRNALIKLLN | 0.142 | 0.629 | – | –
PSLAASHWRVVG | 0.158 | 0.692 | – | –
KKHKMGQKQKIN | 0.0496 | 0.623 | – | –
VRGAVGGWRLVGK | 0.651 | 0.667 | – | –
PSLAASFWRVVGG | 0.651 | 0.682 | – | –
ARWRHGLWRGAS | 0.666 | 0.685 | – | –
LKILRQKYNHQN | 0.189 | 0.7 | – | –
PDKRNHLIKLLNV | 0.203 | 0.659 | – | –
FSMRWTFRYWVS | 0.181 | 0.547 | – | –
FSMRWTFRYQVN | 0.0962 | 0.539 | – | –
PDKRNHLIKGLN | 0.546 | 0.619 | – | –
KKMKKGQKQKIN | 0.0965 | 0.758 | – | –
VKGAVGGWRLVG | 0.149 | 0.691 | – | –
ARWRVGLWRGKS | 0.653 | 0.679 | – | –
RLIQPLPVQTLN | 0.163 | 0.68 | – | –
NCIETFVAEKTT [SRB6 C-terminal 12 aa] | – | – | 0.679 ± 0.014 | 0.669 ± 0.0071
NEKENSLSLSRL [MGT1 C-terminal 12 aa] | – | – | 0.7183 ± 0.0017 | 0.752 ± 0.058

Sequence | protein stability index (Saccharomyces cerevisiae [1]) | protein stability index (Saccharomyces cerevisiae [2]) | protein stability index (Saccharomyces cerevisiae [3]; [4]) | protein stability index (Saccharomyces cerevisiae [3]; genetic background: wild type)
LIFQRKYTAKEF [DTR1 C-terminal 12 aa] | – | – | 0.6863 ± 0.004 | 0.678 ± 0.035
KKLSNDGETQAN [DMO2 C-terminal 12 aa] | – | – | 0.681 ± 0.013 | 0.655 ± 0.011
PVFTASQLRFAW [ESA1 C-terminal 12 aa] | – | – | 0.738 ± 0.018 | 0.7148 ± 0.0046
FPVKSSPNAHTA [YLR334C C-terminal 12 aa] | – | – | 0.707 ± 0.018 | 0.687 ± 0.026
LLAKQLLLLLLR [YER079C-A C-terminal 12 aa] | – | – | 0.33 ± 0.018 | 0.342 ± 0.0063
EIRNMVINSTKD [BFA1 C-terminal 12 aa] | – | – | 0.713 ± 0.008 | 0.688 ± 0.021
DEERPSKKPKVE [POB3 C-terminal 12 aa] | – | – | 0.7314 ± 0.0054 | 0.745 ± 0.02
DDNDDGDDDDDW [MYO3 C-terminal 12 aa] | – | – | 0.68701 ± 0.00044 | 0.7087 ± 0.0034
NPGFIVEKRTID [MRPL33 C-terminal 12 aa] | – | – | 0.697 ± 0.035 | 0.737 ± 0.0098
DNFNSAPSYFSK [MIG3 C-terminal 12 aa] | – | – | 0.6975 ± 0.0012 | 0.682 ± 0.052
SMVSCLLTLYVL [GTT3 C-terminal 12 aa] | – | – | 0.4741 ± 0.0017 | 0.4796 ± 0.0038
EALVKQITSVKQ [SCC4 C-terminal 12 aa] | – | – | 0.6973 ± 0.006 | 0.701 ± 0.015
QGPRPGNWDQED [CCT8 C-terminal 12 aa] | – | – | 0.7177 ± 0.0017 | 0.678 ± 0.016
DNYLKYIKALLL [MSH2 C-terminal 12 aa] | – | – | 0.71 ± 0.029 | 0.445 ± 0.026
YSAVGNFFSRKK [YGR035W-A C-terminal 12 aa] | – | – | 0.718 ± 0.019 | 0.6696 ± 0.002
RSDTKEPLALLS [VPS20 C-terminal 12 aa] | – | – | 0.6784 ± 0.0067 | 0.646 ± 0.01
EDGAVGNLFDDN [MSN5 C-terminal 12 aa] | – | – | 0.681 ± 0.018 | 0.667 ± 0.033
ELENEHVPWGKK [HNM1 C-terminal 12 aa] | – | – | 0.714 ± 0.032 | 0.667 ± 0.015
VFKMIMFIASNE [STU1 C-terminal 12 aa] | – | – | 0.581 ± 0.0076 | 0.5559 ± 0.0028
HVAPYAIIPFII [DFG10 C-terminal 12 aa] | – | – | 0.724 ± 0.0075 | 0.151 ± 0.024
SWSGDNEAHRWT [NPT1 C-terminal 12 aa] | – | – | 0.716 ± 0.023 | 0.686 ± 0.016
IKKRKVQNRAMS [YOL038C-A C-terminal 12 aa] | – | – | 0.701 ± 0.017 | 0.73 ± 0.0083
WEDKYPEMGVTV [YHL044W C-terminal 12 aa] | – | – | 0.6911 ± 0.003 | 0.706 ± 0.0089

Sequence | protein stability index (Saccharomyces cerevisiae [1]) | protein stability index (Saccharomyces cerevisiae [2]) | protein stability index (Saccharomyces cerevisiae [3]; [4]) | protein stability index (Saccharomyces cerevisiae [3]; genetic background: wild type)
WVCQEILKLCKD [NRK1 C-terminal 12 aa] | – | – | 0.675 ± 0.0095 | 0.713 ± 0.036
HPNIDALLKKTE [MST27 C-terminal 12 aa] | – | – | 0.686 ± 0.014 | 0.654 ± 0.035
IKALQDSLFKDV [NUP188 C-terminal 12 aa] | – | – | 0.718 ± 0.013 | 0.705 ± 0.042
CFLIGSSDTTSL [OPI6 C-terminal 12 aa] | – | – | 0.7045 ± 0.0014 | 0.691 ± 0.028
ITRDESTATYKY [RTT101 C-terminal 12 aa] | – | – | 0.695 ± 0.0095 | 0.6686 ± 0.0022
TTLCILFLFFTW [GOS1 C-terminal 12 aa] | – | – | 0.386 ± 0.0071 | 0.401 ± 0.014
PAAWRALTQYIS [PTH1 C-terminal 12 aa] | – | – | 0.7186 ± 0.0024 | 0.348 ± 0.029
LPLYYVYQCDMI [YDR094W C-terminal 12 aa] | – | – | 0.6642 ± 0.0046 | 0.643 ± 0.052
KEESGTTSLPTI [GGA1 C-terminal 12 aa] | – | – | 0.723 ± 0.02 | 0.704 ± 0.011
FIVAEYIQQKKV [SRB4 C-terminal 12 aa] | – | – | 0.694 ± 0.018 | 0.3321 ± 0.00069
VKDFYKRLETLK [RRM3 C-terminal 12 aa] | – | – | 0.6914 ± 0.0038 | 0.7042 ± 0.0011
RAMNEDETLRNL [ORC1 C-terminal 12 aa] | – | – | 0.6957 ± 0.0042 | 0.746 ± 0.012
TYFSKQFLKKEL [LTP1 C-terminal 12 aa] | – | – | 0.746 ± 0.017 | 0.742 ± 0.009
EKDELDNIEVSK [QCR7 C-terminal 12 aa] | – | – | 0.696 ± 0.0052 | 0.683 ± 0.0078
IEIVKDAKRKGY [MRP21 C-terminal 12 aa] | – | – | 0.70154 ± 7.3e-05 | 0.674 ± 0.017
KGLVIVKDAIIL [PFF1 C-terminal 12 aa] | – | – | 0.678 ± 0.027 | 0.697 ± 0.01
DLAYQYVRALEL [SRB2 C-terminal 12 aa] | – | – | 0.683 ± 0.013 | 0.673 ± 0.0094
AVGPRQTGEECR [YER088W-B C-terminal 12 aa] | – | – | 0.695 ± 0.0098 | 0.66899 ± 0.00042
KGISIVESTFIS [YDR222W C-terminal 12 aa] | – | – | 0.704 ± 0.027 | 0.673 ± 0.022
VPEPGDQPLVQA [YPR078C C-terminal 12 aa] | – | – | 0.725 ± 0.022 | 0.678 ± 0.023
KIKKIVLKRSFD [NMD2 C-terminal 12 aa] | – | – | 0.7019 ± 0.0021 | 0.654 ± 0.022
GPSVMCTLYLTF [ARE2 C-terminal 12 aa] | – | – | 0.5849 ± 0.0035 | 0.59105 ± 0.00058

Source: the supplement of paper PMC10724198
